Among the data in paper PMC3366790 (The Journal of Biological Chemistry, 2012) are Kd values, retold here.

In the assay the target is T1, full-length CDC34 with C191S/C223S substitutions (human, UniProt P49427 1-236, C191S | C223S).
T1 sequence: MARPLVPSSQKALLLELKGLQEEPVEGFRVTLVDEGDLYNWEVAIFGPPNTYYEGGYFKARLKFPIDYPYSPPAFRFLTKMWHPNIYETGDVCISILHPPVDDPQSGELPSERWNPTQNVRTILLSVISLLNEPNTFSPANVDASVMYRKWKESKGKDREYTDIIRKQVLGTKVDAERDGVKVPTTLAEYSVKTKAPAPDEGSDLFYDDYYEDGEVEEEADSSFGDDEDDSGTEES
Nature of the assay: NMR titration.

The term Kd denotes the equilibrium constant for the complex coming apart.

B1: sRbx1^12–108 (solubilized human Rbx1/ROC1 residues 12–108 with W27S, V30S, L32Q, W33S) (domain or fragment)
chain: not shown
For the molecule B1, the Kd was above 1 mM.
